Data from article PMC12633535 (bioRxiv, 2025).
Changes are numbered by the printed parent chain. Numbers in names are those of the source.

T1: full-length β-catenin E462K, untagged (human, UniProt P35222 1-781, E462K)
T1 sequence (looked up): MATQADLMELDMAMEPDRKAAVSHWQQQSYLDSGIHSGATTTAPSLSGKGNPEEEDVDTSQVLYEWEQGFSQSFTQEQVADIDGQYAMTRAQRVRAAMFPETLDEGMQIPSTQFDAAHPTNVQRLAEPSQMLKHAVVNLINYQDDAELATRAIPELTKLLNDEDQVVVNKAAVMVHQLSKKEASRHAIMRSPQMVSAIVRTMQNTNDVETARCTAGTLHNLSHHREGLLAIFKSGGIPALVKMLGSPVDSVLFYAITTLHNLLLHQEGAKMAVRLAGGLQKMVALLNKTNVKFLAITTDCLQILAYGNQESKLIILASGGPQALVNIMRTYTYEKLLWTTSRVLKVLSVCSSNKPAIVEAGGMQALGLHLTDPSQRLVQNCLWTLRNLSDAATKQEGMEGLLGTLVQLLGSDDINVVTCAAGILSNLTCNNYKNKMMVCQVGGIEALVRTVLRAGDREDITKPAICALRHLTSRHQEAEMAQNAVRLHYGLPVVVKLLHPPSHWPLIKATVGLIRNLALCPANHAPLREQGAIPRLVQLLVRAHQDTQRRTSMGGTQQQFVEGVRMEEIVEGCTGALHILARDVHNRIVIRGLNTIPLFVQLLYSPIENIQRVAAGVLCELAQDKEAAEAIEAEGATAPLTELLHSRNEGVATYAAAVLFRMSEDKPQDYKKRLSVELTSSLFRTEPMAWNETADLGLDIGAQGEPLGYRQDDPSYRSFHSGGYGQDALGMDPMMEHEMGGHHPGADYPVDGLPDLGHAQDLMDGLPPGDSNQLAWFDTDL

T2: β-catenin C619Y/E620K (purified, full length, untagged) (human, UniProt P35222 1-781, C619Y | E620K)
T2 sequence (looked up): T1 sequence (looked up) with K462E, C619Y, E620K

T3: GST-ICAT (a.a. Met1-Gln81) (UniProt Q9NSA3 1-81)
T3 sequence (looked up): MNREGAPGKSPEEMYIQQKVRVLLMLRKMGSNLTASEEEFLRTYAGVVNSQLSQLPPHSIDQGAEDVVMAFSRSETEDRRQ

B1: full-length β-catenin, untagged, wild type (natural protein, human, UniProt P35222 1-781, looked up)
chain: T1 sequence (looked up) with K462E
B2: GST-tagged AXIN1 CBD peptide V475I (a.a. 435-498) (domain or fragment, human, UniProt O15169-1 435-498, looked up)
chain: CHKLPPAPAWHHFPPRCVDMGCAGLRDAHEENPESILDEHIQRVLRTPGRQSPGPGHRSPDSGH
B3: GST-tagged AXIN1 CBD peptide V475I/L479W (a.a. 435-498) (domain or fragment, human, UniProt O15169-1 435-498, looked up)
chain: B2 chain with L45W
B4: GST-tagged AXIN1 CBD peptide, wild type (a.a. Cys435-His498) (domain or fragment, human, UniProt O15169-1 435-498, looked up)
chain: B2 chain with I41V
B5: GST-tagged TCF4 fragment (a.a. 1–53) (domain or fragment, UniProt Q9NQB0 1-53, looked up)
chain: MPQLNGGGGDDLGANDELISFKDEGEQEEKSSENSSAERDLADVKSSLVNESE
B6: full-length β-catenin C466Y/A467T, untagged (natural protein, human, UniProt P35222 1-781, looked up)
chain: T1 sequence (looked up) with K462E, C466Y, A467T
B7: full-length β-catenin R469H, untagged (natural protein, human, UniProt P35222 1-781, looked up)
chain: T1 sequence (looked up) with K462E, R469H
B8: purified β-catenin E571K (full length, untagged) (natural protein, human, UniProt P35222 1-781, looked up)
chain: T1 sequence (looked up) with K462E, E571K
B9: β-catenin D624K/E626K/E628K (purified, full length, untagged) (natural protein)
chain: T1 sequence (looked up) with K462E, D624K, E626K, E629K

Tests used:
Experiment in all cases: BLI
[1] = molecular target: B3
[2] = molecular target: B1
[3] = molecular target: T1, full-length β-catenin E462K, untagged
[4] = molecular target: T2, β-catenin C619Y/E620K (purified, full …)
[5] = molecular target: B1; remark: listed apart in the source
[6] = molecular target: B5
[7] = molecular target: T3, GST-ICAT (a.a. Met1-Gln81)

Binder | Kd [2] [nM] | fold reduction of affinity against wild-type β-catenin [6] [fold] | other results
B1 | – | – | fold decrease of koff against the wild-type CBD peptide [1]: ~20 fold; half-life of the complex [1]: ~1 min
B2 | ~450 | – | –
B3 | 40 | – | –
B4 | 1000 | – | –
B5 | – | – | binding result [3]: binds; binding result [4]: binds; binding result [5]: binds
B6 | – | > 10 | –
B7 | – | > 10 | –
B8 | – | ~7 | –
B9 | – | ~10 | fold reduction of affinity against wild-type β-catenin [7]: ~10 fold
